Assay results published in patent publication US20240270825A1 (CENTIVAX, published 2024).
Changes are numbered by the printed parent chain.

T1: MERS Receptor Binding Domain (RBD) protein (Middle East Respiratory Syndrome (MERS) …, UniProt K9N5Q8 367-606)
T1 construct: also called Middle East Respiratory Syndrome (MERS) virus
T1 sequence: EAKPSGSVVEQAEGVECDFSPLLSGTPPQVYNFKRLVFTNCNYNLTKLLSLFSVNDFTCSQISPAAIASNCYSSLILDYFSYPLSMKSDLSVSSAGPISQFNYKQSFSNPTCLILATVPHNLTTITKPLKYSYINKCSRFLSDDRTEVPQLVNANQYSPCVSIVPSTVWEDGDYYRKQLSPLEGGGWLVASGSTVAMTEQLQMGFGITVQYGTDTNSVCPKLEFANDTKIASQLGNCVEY

B1: COVID19_P21_F11 (scFv, V domains shown)
VH: QVQLVQSGAEVKKPGSSVKVSCKASGGTFSSYAISWVRQAPGQGLEWMGIIYPGDSTARYSQKFQGRVTITADESTSTAYMELSSLRSEDTAVYYCAGGSGISTLYDVWGQGTLVTVSS
VL: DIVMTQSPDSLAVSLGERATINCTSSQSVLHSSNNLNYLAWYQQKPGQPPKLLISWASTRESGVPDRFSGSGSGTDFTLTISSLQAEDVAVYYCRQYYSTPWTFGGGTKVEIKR
B2: COVID19_P21_E12 (scFv, V domains shown)
VH: QVQLVQSGAEVKKPGSSVKVSCKASGGTFISYAISWVRQAPGQGLEWMGGIIPTLGTYNYAQKFQGRVTITADESTSTAYMELSSLRSEDTAVYYCAGSWGISTPMDVWGQGTLVTVSS
VL: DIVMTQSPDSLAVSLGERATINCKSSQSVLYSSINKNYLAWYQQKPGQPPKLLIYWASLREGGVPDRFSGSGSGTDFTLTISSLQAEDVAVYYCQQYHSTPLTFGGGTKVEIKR
B3: COVID19_P09_E11 (scFv, V domains shown)
VH: B1 VH with S31N, Y32H, P41Y, S56G, A58T, L105P, Y106M
VL: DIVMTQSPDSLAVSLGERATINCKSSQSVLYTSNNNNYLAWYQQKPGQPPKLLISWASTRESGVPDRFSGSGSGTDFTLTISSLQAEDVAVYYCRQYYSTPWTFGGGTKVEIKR
B4: COVID19_P22_E12 (scFv, V domains shown)
VH: B2 VH with I30S, S35N, T54V, G56H, Y58V, N59D, K63R, F64L, S99E
VL: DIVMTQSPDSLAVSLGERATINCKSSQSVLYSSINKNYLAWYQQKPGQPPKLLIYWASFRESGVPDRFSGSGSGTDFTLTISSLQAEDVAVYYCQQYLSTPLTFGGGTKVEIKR
B5: COVID19_P22_F07 (scFv, V domains shown)
VH: QVQLVQSGAEVKKPGSSVKVSCKASGGTFSSYAISWVRQAPGQGLEWMGGIIPIFGSTASYAQKFQGRVTITADESTSTAYMELSSLRSEDTAVYYCAGEWGISTPMDVWGQGTLVTVSS
VL: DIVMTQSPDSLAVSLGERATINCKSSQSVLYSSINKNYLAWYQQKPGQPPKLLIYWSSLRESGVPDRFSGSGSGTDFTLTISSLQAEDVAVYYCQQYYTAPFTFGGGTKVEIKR
B6: COVID19_P09_C09 (scFv, V domains shown)
VH: QVQLVQSGAEVKKPGSSVKVSCKASGGTFSSYAISWVRQAPGQGLEWMGIIDPSGGSTSYAQQFQGRVTITADESTSTAYMELSSLRSEDTAVYYCAGGSGISTPMDVWGQGTLVTVSS
VL: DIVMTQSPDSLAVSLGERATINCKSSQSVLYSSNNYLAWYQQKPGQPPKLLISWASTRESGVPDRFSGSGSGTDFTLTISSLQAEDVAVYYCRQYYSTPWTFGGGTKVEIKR
B7: COVID19_P21_F04 (scFv, V domains shown)
VH: B6 VH with I50Q, D52N, G56D, S59R, Q63K
VL: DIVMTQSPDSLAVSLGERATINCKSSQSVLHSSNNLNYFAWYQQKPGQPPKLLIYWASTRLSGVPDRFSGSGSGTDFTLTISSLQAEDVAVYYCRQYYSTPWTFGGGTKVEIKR
B8: COVID19_P21_A12 (scFv, V domains shown)
VH: B2 VH with I30S, G50S, I51V, T54V, L55F, T57R, Y58P, S99E
VL: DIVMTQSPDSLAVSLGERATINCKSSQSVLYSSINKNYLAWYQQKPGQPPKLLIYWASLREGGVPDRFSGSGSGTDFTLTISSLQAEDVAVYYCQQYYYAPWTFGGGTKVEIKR
B9: COVID19_P21_B08 (scFv, V domains shown)
VH: B6 VH with I50V, D52N, P53T, S54G, T58V, S59T, Q63K, G99H, S100W
VL: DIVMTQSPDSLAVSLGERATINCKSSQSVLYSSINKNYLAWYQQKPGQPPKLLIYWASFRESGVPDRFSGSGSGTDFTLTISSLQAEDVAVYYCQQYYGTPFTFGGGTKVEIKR
B10: COVID19_P21_F08 (scFv, V domains shown)
VH: QVQLVQSGAEVKKPGSSVKVSCKASGGTFSTYAFNWVRQAPGQGLEWMGVINTGGGSVTYAQKFQGRVTITADESTSTAYMELSSLRSEDTAVYYCAGGSGISTPGAVWGQGTLVTVSS
VL: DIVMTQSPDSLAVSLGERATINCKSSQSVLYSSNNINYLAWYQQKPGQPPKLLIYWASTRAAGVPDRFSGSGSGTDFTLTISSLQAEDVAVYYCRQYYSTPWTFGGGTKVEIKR
B11: COVID19_P22_B12 (scFv, V domains shown)
VH: B1 VH with F29L, T57E, A58T, L105P, Y106R, D107S
VL: DIVMTQSPDSLAVSLGERATINCKSSRILSYSPDNKNYLAWYQQKPGQPPKLLIYWASTRESGVPDRFSGSGSGTDFTLTISSLQAEDVAVYYCQQSYITPYTFGGGTKVEIKR

Key:
[1] = target: T2, SARS-CoV-1 Receptor Binding Domain (RBD) protein (SARS-CoV-1, UniProt P59594 306-527); assay: SPR Carterra LSA, scFv captured via anti-V5
T2 construct: also called SARS1

[2] = target: T1, MERS Receptor Binding Domain (RBD) …; assay: SPR Carterra LSA, scFv captured via anti-V5
[3] = target: SARS-CoV-2 Receptor Binding Domain (RBD) protein (SARS-CoV-2, UniProt P0DTC2 319-541); assay: SPR Carterra LSA, scFv captured via anti-V5, 1:1 fit

Binder	binding result [1]	binding result [2]	Kd [3]	koff [3]
B1	no binding (tested: 300 nM)	no binding (tested: 300 nM)	1.1 nM	5.7e-05 s⁻¹
B2	no binding (tested: 300 nM)	no binding (tested: 300 nM)	–	–
B3	no binding (tested: 300 nM)	no binding (tested: 300 nM)	–	–
B4	no binding (tested: 300 nM)	no binding (tested: 300 nM)	–	–
B5	no binding (tested: 300 nM)	no binding (tested: 300 nM)	–	–
B6	no binding (tested: 300 nM)	no binding (tested: 300 nM)	–	–
B7	no binding (tested: 300 nM)	no binding (tested: 300 nM)	–	–
B8	no binding (tested: 300 nM)	no binding (tested: 300 nM)	–	–
B9	no binding (tested: 300 nM)	no binding (tested: 300 nM)	–	–
B10	no binding (tested: 300 nM)	no binding (tested: 300 nM)	–	–
B11	no binding (tested: 300 nM)	no binding (tested: 300 nM)	–	–
